To fix the notation:
B3: S. cerevisiae Nrd1 CID1-152 (domain or fragment)
chain: MQQDDDFQNFVATLESFKDLKSGISGSRIKKLTTYALDHIDIESKIISLIIDYSRLCPDSHKLGSLYIIDSIGRAYLDETRSNSNSSSNKPGTCAHAINTLGEVIQELLSDAIAKSNQDHKEKIRMLLDIWDRSGLFQKSYLNAIRSKCFAM
B4: S. pombe Seb1 CID1-148 (domain or fragment)
chain: MSGIAEFDGILDSLEHSKTGISGSKILKLTNLSMENVSENAQFVASVYKYAKRAPVTHKLGALYILDSIVRSFQDGAKKNNESFENPVDASFSGGWCKAAEITDSLVADAIQHAPSAHLPKILKLCDIWEKASTFPPEKLESLRSKLK
B6: Full-length Seb1 with C-terminal His8-tag (natural protein, S. pombe, UniProt Q9UTE3 1-620, looked up)
chain: MSGIAEFDGILDSLEHSKTGISGSKILKLTNLSMENVSENAQFVASVYKYAKRAPVTHKLGALYILDSIVRSFQDGAKKNNESFENPVDASFSGGWCKAAEITDSLVADAIQHAPSAHLPKILKLCDIWEKASTFPPEKLESLRSKLKDAMASTEPVSVDSAAAPSQSTNPEGNGGSVGSQAAAPTSRPVENDAASILEALAAFAQKAPVPSAAEESVSTPPQPAVAPSVSAVVPNLPVHPATAINAQSQSGNPLSNPLFQPSNVPQSIPSGPMGMKTGSVNDTQSQQITLMNVLASQNVPPAQIDSIMKAAFPNYNAPFQPAGVGSVPLPAPTSSQSLRLGSLHRSRSPSPRSGRPRRSPSPSHLSIPSTLPPADGVPKPTPDGFPRRFERDPTIPPDSIKVYSRTLFLGGITRSVREPVLRSMFERFGSVQSLILNHNYRHGFLKMFRRDAAEKAQVAMENVPFADTTIRTKWGVGFGPRECSDFSTGISVIPIRLLTDADRTWLVTAEYGGTGGLPITPGIALDEPDIEIGLGISSKAISKRGKDFAMRRDERFRGRKPYRGGPPIHHGERHFDSGNDWHGNPSTVPPPTNPYNPGYPYMDPNYSSGYVSQPPWQPQ
notes: Seb1, S. pombe, full length; fractions containing monomeric Seb1 were used; also called Seb1(full-length)-His8; recombinant Seb1; source: E. coli Rosetta, purified (Ni-NTA, Superdex 200); not shown: His8, C-terminal, kept
B8: S. cerevisiae Rtt103 CID (domain or fragment)
chain: MPFSSEQFTTKLNTLEDSQESISSASKWLLLQYRDAPKVAEMWKEYMLRPSVNTRRKLLGLYLMNHVVQQAKGQKIIQFQDSFGKVAAEVLGRINQEFPRDLKKKLSRVVNILKERNIFSKQVVNDIERSLKTESSPVEALVLPQKLKDFAKDYEKLVKMHH

Non-standard residues stand in square brackets, D forms with d. No end group written: not given here. pS = N[C@@H](COP(=O)(O)O)C(=O)O; FAM = 5'-fluorescein amidite

The target in assay [1] is B6. Put plainly: cross-linking; BS3 lysine-lysine cross-linking of reconstituted Seb1:Pol II (6:1 or 4:1 molar ratio) in CB buffer (50 mM HEPES pH 7.6, 150 mM NaCl), 30 min at 4 °C, mass spectrometry (pLink). To be noted: both partners purified.
Assay [2] addresses T1, Double-repeated Ser5P (Schizosaccharomyces pombe).
T1 chain: {FAM}-YSPT[pS]PSYSPT[pS]PS
Put plainly: FP.

Assay [3] concerns the target T2, Rpb1, subunit of S. pombe Pol II (S. pombe, UniProt P36594 1-1752, CTD phosphorylated (Thr4P, Tyr1P, Ser2P, Ser5P detected by western blot)).
T2 construct: Rpb1, largest subunit of RNA polymerase II, S. pombe; stood in the assay as a subunit of m11; source: endogenous, S. pombe (Rpb9-Flag strain), purified as part of Pol II (anti-Flag M2 agarose)
Put plainly: cross-linking; BS3 lysine-lysine cross-linking of reconstituted Seb1:Pol II (6:1 or 4:1 molar ratio) in CB buffer (50 mM HEPES pH 7.6, 150 mM NaCl), 30 min at 4 °C, mass spectrometry (pLink). To be noted: both partners purified.

For assay [4], the target named is T3, Rpb2, subunit of S. pombe Pol II (S. pombe, UniProt Q02061 1-1210).
T3 construct: Rpb2, RNA polymerase II subunit, S. pombe; stood in the assay as a subunit of m11; source: endogenous, S. pombe (Rpb9-Flag strain), purified as part of Pol II (anti-Flag M2 agarose, HiTrap Q)
The assay is described as above. The conditions noted are these: both partners purified.

The target in assay [5] is T4, S. cerevisiae Pcf11 CID1-144 (S. cerevisiae, UniProt P39081 1-144).
T4 chain: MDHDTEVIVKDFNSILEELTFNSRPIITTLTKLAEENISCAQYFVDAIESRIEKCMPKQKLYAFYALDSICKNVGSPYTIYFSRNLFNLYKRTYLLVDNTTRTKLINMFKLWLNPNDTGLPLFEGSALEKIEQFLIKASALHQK
Put plainly: FP.

The target of assay [6] is B3. Put plainly: FP.
Assay [7] deals with B4. Nature of the assay: FP.
Assay [8] has as its target B8. Nature of the assay: FP.
Assay [9] addresses T5, S. pombe Pcf11 CID1-139 with an N-terminal His6-SUMO tag (S. pombe).
T5 chain: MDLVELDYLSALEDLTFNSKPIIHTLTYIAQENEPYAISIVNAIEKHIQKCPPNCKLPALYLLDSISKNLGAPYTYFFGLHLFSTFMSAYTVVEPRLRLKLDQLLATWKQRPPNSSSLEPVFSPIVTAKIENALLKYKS
Nature of the assay: FP.

Data on ten molecules can be found in publication PMC6180485, “Elongation/Termination Factor Exchange Mediated by PP1 Phosphatase Orchestrates Transcription Termination” (Cell Reports, 2018).

T2 sequence (P36594 whole entry): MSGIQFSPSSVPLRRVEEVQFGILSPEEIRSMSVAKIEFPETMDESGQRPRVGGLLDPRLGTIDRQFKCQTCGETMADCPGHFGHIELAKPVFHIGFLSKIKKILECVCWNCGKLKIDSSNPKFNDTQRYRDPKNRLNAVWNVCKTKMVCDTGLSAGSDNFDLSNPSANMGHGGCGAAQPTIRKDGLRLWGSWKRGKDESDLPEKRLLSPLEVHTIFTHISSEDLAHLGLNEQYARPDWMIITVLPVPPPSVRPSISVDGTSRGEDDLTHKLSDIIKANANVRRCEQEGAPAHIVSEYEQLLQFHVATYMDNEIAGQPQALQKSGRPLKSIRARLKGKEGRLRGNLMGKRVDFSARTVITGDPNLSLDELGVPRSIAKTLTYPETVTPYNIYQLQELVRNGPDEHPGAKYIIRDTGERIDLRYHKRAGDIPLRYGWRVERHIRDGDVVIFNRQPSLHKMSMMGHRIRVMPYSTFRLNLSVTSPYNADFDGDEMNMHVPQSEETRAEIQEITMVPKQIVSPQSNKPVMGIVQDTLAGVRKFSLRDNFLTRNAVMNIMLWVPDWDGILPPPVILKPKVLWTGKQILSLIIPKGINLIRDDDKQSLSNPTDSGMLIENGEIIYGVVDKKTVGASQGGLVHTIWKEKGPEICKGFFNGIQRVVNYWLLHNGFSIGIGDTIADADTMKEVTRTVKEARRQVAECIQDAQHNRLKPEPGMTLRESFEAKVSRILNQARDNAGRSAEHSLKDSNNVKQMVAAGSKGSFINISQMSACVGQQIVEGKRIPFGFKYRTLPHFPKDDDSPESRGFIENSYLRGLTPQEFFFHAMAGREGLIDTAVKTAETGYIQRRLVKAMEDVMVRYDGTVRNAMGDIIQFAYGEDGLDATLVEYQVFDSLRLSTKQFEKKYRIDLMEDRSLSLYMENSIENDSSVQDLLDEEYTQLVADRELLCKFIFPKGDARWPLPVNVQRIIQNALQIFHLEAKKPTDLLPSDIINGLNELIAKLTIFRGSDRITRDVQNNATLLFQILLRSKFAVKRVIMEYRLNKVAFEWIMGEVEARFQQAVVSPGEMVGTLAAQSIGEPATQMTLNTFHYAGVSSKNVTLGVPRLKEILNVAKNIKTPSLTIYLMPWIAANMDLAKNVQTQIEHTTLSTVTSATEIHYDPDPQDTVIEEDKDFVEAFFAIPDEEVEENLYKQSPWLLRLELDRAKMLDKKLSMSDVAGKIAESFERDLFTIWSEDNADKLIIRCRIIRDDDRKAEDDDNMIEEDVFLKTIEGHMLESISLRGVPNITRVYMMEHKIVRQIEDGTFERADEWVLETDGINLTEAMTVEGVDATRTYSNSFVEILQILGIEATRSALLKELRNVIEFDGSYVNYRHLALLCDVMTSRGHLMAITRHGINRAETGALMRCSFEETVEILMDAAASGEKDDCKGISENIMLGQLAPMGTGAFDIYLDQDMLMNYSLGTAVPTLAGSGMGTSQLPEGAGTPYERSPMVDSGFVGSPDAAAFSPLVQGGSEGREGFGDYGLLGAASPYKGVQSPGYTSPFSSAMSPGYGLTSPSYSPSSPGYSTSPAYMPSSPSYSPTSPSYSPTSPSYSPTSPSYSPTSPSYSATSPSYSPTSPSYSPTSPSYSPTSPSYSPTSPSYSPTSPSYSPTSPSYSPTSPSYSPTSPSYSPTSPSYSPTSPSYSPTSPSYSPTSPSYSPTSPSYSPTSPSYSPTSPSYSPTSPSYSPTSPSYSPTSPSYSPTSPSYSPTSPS
T3 sequence (Q02061 whole entry): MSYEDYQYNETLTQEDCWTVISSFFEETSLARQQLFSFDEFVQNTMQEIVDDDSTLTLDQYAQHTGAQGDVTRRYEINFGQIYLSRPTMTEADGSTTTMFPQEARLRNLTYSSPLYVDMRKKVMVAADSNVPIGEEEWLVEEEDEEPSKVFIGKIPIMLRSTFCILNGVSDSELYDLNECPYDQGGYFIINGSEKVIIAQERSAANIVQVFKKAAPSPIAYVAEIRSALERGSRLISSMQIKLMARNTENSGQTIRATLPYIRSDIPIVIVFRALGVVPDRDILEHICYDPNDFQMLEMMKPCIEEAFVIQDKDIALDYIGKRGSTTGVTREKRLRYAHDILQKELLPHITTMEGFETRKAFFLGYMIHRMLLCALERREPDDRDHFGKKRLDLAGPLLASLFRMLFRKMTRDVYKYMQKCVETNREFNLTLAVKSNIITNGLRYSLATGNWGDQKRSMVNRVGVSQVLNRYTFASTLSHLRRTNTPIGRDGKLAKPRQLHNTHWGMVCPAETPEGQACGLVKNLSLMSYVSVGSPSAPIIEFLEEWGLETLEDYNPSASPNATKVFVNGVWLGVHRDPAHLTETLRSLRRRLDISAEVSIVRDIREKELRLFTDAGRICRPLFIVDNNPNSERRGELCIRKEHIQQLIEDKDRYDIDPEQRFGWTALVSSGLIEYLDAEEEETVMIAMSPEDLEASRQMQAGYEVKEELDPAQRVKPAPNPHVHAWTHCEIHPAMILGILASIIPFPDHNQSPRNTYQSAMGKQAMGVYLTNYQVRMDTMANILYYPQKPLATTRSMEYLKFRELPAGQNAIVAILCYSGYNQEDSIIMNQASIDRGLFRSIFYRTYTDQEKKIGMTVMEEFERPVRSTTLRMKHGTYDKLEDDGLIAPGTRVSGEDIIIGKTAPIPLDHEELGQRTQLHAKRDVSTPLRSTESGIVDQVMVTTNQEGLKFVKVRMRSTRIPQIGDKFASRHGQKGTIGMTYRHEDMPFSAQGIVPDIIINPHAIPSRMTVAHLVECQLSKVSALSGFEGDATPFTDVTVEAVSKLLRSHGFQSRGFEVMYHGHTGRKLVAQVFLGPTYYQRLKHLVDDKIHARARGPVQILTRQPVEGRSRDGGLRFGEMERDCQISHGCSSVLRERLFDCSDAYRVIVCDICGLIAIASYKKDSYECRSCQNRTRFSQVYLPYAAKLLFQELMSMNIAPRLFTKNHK

B1: Rpb5, subunit of S. pombe Pol II (natural protein, UniProt Q09191 1-210, looked up)
chain: MSAEEKNIVRVFRAWKTAHQLVHDRGYGVSQAELDLTLDQFKAMHCGMGRNLDRTTLSFYAKPSNDSNKGTIYIEFAKEPSVGIKEMRTFVHTLGDHNHKTGILIYANSMTPSAAKIIATVTGQFTIETFQESDLIVNITHHELVPKHILLSPDEKKELLDRYKLRETQLPRIQLADPVARYLGLKRGEVVKIVRRSETSGRYNSYRICA
notes: Rpb5, RNA polymerase subunit, S. pombe; stood in the assay as a subunit of m11; source: endogenous, S. pombe (Rpb9-Flag strain), purified as part of Pol II (anti-Flag M2 agarose, HiTrap Q)
In the case of B1, in assay [1], the binding result is listed as “binds”.

B2: Rpc10, subunit of S. pombe Pol II (natural protein, UniProt P48011 1-63, looked up)
chain: MNHPTSTGGTAFNPPRPATMIYLCADCGARNTIQAKEVIRCRECGHRVMYKMRTKRMVQFEAR
notes: Rpc10, RNA polymerase subunit, S. pombe; stood in the assay as a subunit of m11; source: endogenous, S. pombe (Rpb9-Flag strain), purified as part of Pol II (anti-Flag M2 agarose, HiTrap Q)
In the case of B2, the binding result in assay [1] is “binds”. Turning to B3, in assay [2], the Kd (as a rule, the free concentration of one partner at which half of the binding sites on the other are occupied at equilibrium, for simple one-to-one binding) turned out to be 65.8 µM. This lies in the double-digit micromolar range. Turning to B4, in [2], binding was characterised by a dissociation constant (Kd) of 281 µM.

B5: Rpb4, subunit of S. pombe Pol II (natural protein, UniProt O74825 1-135, looked up)
chain: MPRAIFEEDAAQLKLGPEFENEDMLTVSEAKILIETVLAQRARETNGEIPMTDVMKKTVAYFNVFARFKTAEATYACERILGNRFHKFERAQLGTLCCEDAEEARTLIPSLANKIDDQNLQGILDELSTLRKFQD
notes: Rpb4, RNA polymerase II subunit, S. pombe; stood in the assay as a subunit of m11; source: endogenous, S. pombe (Rpb9-Flag strain), purified as part of Pol II (anti-Flag M2 agarose, HiTrap Q)
As for B5, the binding result in assay [1] is given as “binds”. Consider B6, for which the binding result in assay [3] and in assay [4] was “binds” in each case.

B7: Rpb7, subunit of S. pombe Pol II (natural protein, UniProt O14459 1-172, looked up)
chain: MPFFLKELSLTISLHPSYFGPRMQDYLKAKLLADVEGTCSGQYGYIICVLDSNTIDIDKGRVVPGQGFAEFEVKYRAVLWRPFRGEVVDAIVTTVNKMGFFANIGPLNVFVSSHLVPPDMKFDPTANPPNYSGEDQVIEKGSNVRLKIVGTRTDATEIFAIATMKEDYLGVL
notes: Rpb7, RNA polymerase II subunit, S. pombe; stood in the assay as a subunit of m11; source: endogenous, S. pombe (Rpb9-Flag strain), purified as part of Pol II (anti-Flag M2 agarose, HiTrap Q)
B7: the binding result in assay [1] is on record as “binds”. With {FAM}-YSPTSPSYSPTSPS (also: phospho-Ser2 of heptad, which repeat not given here) [FAM-labeled two-repeat CTD peptide, Ser2P], the dissociation constant (Kd) in assay [5] was found to be 127 µM; in assay [6] it was 126 µM; in [7] it was 72.3 µM; in [8], 32.3 µM; in assay [9], 48.1 µM. Turning to B8, in [2], the Kd is more than 1000 µM.

B9: Rpb3, subunit of S. pombe Pol II (natural protein, UniProt P37382 1-297, looked up)
chain: MDSETHITIRNISKNSVDFVLTNTSLAVANSLRRVVLAEIPTVAIDLVEINVNTSVMPDEFLAHRLGMIPLDSSNIDEPPPVGLEYTRNCDCDQYCPKCSVELFLNAKCTGEGTMEIYARDLVVSSNSSLGHPILADPKSRGPLICKLRKEQEISLRCIAKKGIAKEHAKWSPTSAVAFEYDPWNKLQHTDYWFENDADAEWPKSKNADWEEPPREGEPFNFQEEPRRFYMDVESVGSIPPNEIMVQGLRILQEKLAVLVRDLDEEQPTQLSANELNMEENAEMNWSPYQNGEENTW
notes: Rpb3, RNA polymerase II subunit, S. pombe; stood in the assay as a subunit of m11; source: endogenous, S. pombe (Rpb9-Flag strain), purified as part of Pol II (anti-Flag M2 agarose, HiTrap Q)
As for B9, in assay [1], the binding result was “binds”.
